The DeepSol protein solubility set

Experiment: soluble on expression in E. coli; label from the status in PepcDB or PDB records

Sequence	soluble on expression in E. coli
MSPGSVVVTGANRGIGLGLVQQLVKDKNIRHIIATARDVEKATELKSIKDSRVHVLPLTVTCDKSLDTFVSKVGEIVGSDGLSLLINNAGVLLSYGTNTEPNRAVIAEQLDVNTTSVVLLTQKLLPLLKNAASKESGDQLSVSRAAVITISSGLGSITDNTSGSAQFPVLAYRMSKAAINMFGRTLAVDLKDDNVLVVNFCPGWVQTNLGGKNAALTVEQSTAELISSFNKLDNSHNGRFFMRNLKPYEF	soluble
MFHLSSLICCGCKPNFLGFERHHPFYDNDKKRICSSECGHSLCKKCFETYKNCPICAKPLVRIDNFMAREIYAFLKKTPMIVFDMWWNRSQNPSSTGRCSTCHKYDRILRWCITCEKDLKNSEAEWRRPKIEPNTDLQKELIKVSKERFRFGILANRVICSDCFLEHHAGHRVIFLDEMISALTEYSISDSATHLVQRFLWREIEERRGKCLLRTMRMKRAFLKLFYLACDSDLTDDYNDLPKFFERLDDWKVPDGYMEKVRKNLEHQFASANVPWKDCECRYAMRIMNDMFSFKNQIEKLFVSIVNDLDLHEITECPFKNSQITDMLQKTKKMVDIQLYKLYTLFCWNNYKDGVFELFNNSNRLPTKCCLCKMSTCAECWDEEPHKCGICDDATTSSRTDPDIVVLELVKHYKENCISLLEAWWECDAAQLGFCLNCASYTEDLEICVYCELDVERSALKTEVETSAEFTKDMQLRFTYKGLSGFPMRWQCSDCTTRHRKPTADVWNKGCNHFRYRSMYASVSSECFAHNHKSPCLRLKEIKNYDLAMKAATFGLVFKIIKEGIKEHVGSEHARKEILET	not soluble
MAHHHHHHMTRTKVKKVQMQMKARETVAPPSTACTTTRCLYTLTTFDVKSGGVKTSGEFPAGGGPKLPRDPLLHYFVKSLHGFLSTCLVVTSQRLVTFSANNNFFCIATVFPTLHTSPSVKNSKSLALRGKTENVVTERLGV	not soluble
MSLYNKVLIIDDHPVLRFAVRVLMEKEGFEVIGETDNGIDGLKIAREKIPNLVVLDIGIPKLDGLEVIARLQSLGLPLRVLVLTGQPPSLFARRCLNSGAAGFVCKHENLHEVINAAKAVMAGYTYFPSTTLSEMRMGDNAKSDSTLISVLSNRELTVLQLLAQGMSNKDIADSMFLSNKTVSTYKTRLLQKLNATSLVELIDLAKRNNLAEGHHHHHH	not soluble
MTYNVWNFGESNGRYSALTARGISKETCQKAGYWIAKVDGVMYQVADYRDQNGNIVSQKVRDKDKNFKTTGSHKSDALFGKHLWNGGKKIVVTEGEIDMLTVMELQDCKYPVVSLGHGASAAKKTCAANYEYFDQFEQIILMFDMDEAGRKAVEEAAQVLPAGKVRVAVLPCKDANECHLNGHDREIMEQVWNAGPWIPDGVVSALSLRERIREHLSSEESVGLLFSGCTGINDKTLGARGGEVIMVTSGSGMVMSTFVRQQALQWGTAMGKKVGLAMLEESVEETAEDLIGLHNRVRLRQSDSLKREIIENGKFDQWFDELFGNDTFHLYDSFAEAETDRLLAKLAYMRSGLGCDVIILDHISIVVSASGESDERKMIDNLMTKLKGFAKSTGVVLVVICHLKNPDKGKAHEEGRPVSITDLRGSGALRQLSDTIIALERNQQGDMPNLVLVRILKCRFTGDTGIAGYMEYNKETGWLEPSSYSGEEESHSESTDWSNDTDF	soluble
MSLEKLTYAEVVNVIDGQVLGGRAGLHKTLNKFVIGAMELDAMMRYTAAGNLLIVGNRINAHRQALEAGAAVLVTGGFNTDDSIVQLADELELPILSTSYDTFTVAAMINRAIYDQLIKKEIVLVEDILTPADRTVYLSPKDKLEKWYEKNFETGHGRFPVVDDQMKIHGILTSKDIAGHDRNASIEKVMTKNPVTVIGKTSVASAAQMMVWEGIEVLPVTDGHQKLIGMISRQDVLKALQMIQKEGHHHHHH	soluble
MGSDKIHHHHHHMIKEFNATVRYLESVLESEIDEREFLRISGYSVPMFSRLFSILTDMSLSEYVRLRKLTRAAMDIREGQAKIIDIAFKYGYESSDSFAFAFKQFHQISPSQVRKGLPFKVLLPLQLSLTIQGGKEMDVRIEKKAGFTVAGLLRTAISNEVCPQVWEDLFKNHTYEELAALGSGQSFGVCTLAQADETINYMAAYDVTDSEKATKLGLELLDVHEADYAIFTLIGPVPQSIHAGWRYALETFFPEHGYRHSGAPDFEYYFEGDMSSPDYQMELWIPIVKA	not soluble
MGSDKIHHHHHHMLQMIPARPSRALASLSEAYEECRQITARYAKTFYLGTLLMPEAKRQAIWAIYVWCRRTDELVDGPQAAQTNFATLDAWERRLERLFAGEPEDDCDVALVDTLARYPLDIQPFRDMIEGQRMDLLQNRYSTFEDLYTYCYRVAGTVGLMSQPVMGIESTNSRAPWDPTTPPDPTQEALALGIANQLTNILRDVGEDARRGRIYLPQEELAQFNYSEQDLFNGVIDDRWRAFMQFQLDRARDYFEQAERGIRQLSHDARWPVWASLMLYREILDVIEQNNYDVFRKRAYVPTWRKLCSLPVAMLRATVL	not soluble
MNSDVIKGKWKQLTGKIKERWGDLTDDDLQAADGHAEYLVGKLQERYGWSKERAEQEVRDFSDRL	soluble
MASGQFVNKLQEEVICPICLDILQKPVTIDCGHNFCLKCITQIGETSCGFFKCPLCKTSVRKNAIR	soluble
MGSDKIHHHHHHMSTVTTGRTLDANGDPVPGTGFELDPDSQFADRVRERTGPVTSHPTRPVWGIPLEGSGDTIRTLSVFGPGYGGPPEHYHEQSPERFEVERGSLTMMLDGTDHEVTAGETATVETGVTHTFRNDTDKRAVVITNIYSPGRLRQVLPTLGGLAHDDEGNPENPLQQALVADRLDGNTVFTRQERLEPLSRLLTPVAELAGYQGAYAKYTQPAFWERHVEQPDL	not soluble
MKVDVDEKTYIITMANDITKLYEENKRNLHYSITDPLTGAYNRKYLNDRFDIFIGDYIVLIDLDNFKMINDYEGHNVGDKILCDFVSLLNKELINSTSIIRLGGDEFIVIFSSDVDKNYVYSQLEALRENFLKVFSKYKYLSFSYGVDTVKRNLKLTIVELDKKMYKNKEKLEHHHHHH	not soluble
WLEPYMTSVASVKDLSKINLVEALNARLGWPLNQHLDEWLPEHYQLPTGTKKRIRYQHGHEPVLSVRMQEVFGESTSPTVALGRKRLVLELLSPAQRPLQVTSDLAAFWNGSYKDVQKEMKGRYPKHVWPDDPANHVATTKTKRQLNND	not soluble
MAHHHHHHMIEETSFSNLKWEHDLFSIGDLHGDMDAFLKILLNEKMIDKNYNVIRENVLIVITGDVLDPSYDDINILFFIEEYNEKGKALNSKILMVLGNHEVKNMCLEFNKVKKNVEKYQNRNDMFPKNEVIYNILVNKPFVLRVNEMVFSHAGVLPFYASYGIDYINKEGKNEIENNCKLLFNKRKRKEEFCIACDYGPTLNRYFSFVNDGVFKKWMVCSTLNKSLNLLSSRRMIVGHTVQKNKKINSFCDDKLLLTDTGISKWKNGVVSYVQYFKDGTFDVRYL	not soluble
MFFRVKTTPTKAKPYVKPQNANNLQNNFNPRKIFTEYISKEETDAGIEDGSMFKGVLRINPKNYQECFLDHPKGTNHPDVLVLGQDRNRAMQGDVVAVKIKPKEDWLVNYVEYVKWWAEHKKGDRNSGKTDNNSPNKTEKRCLRNEIQDNGVTSDEVPDSCLITIGAIVHILEKKHFRVAAGKLQLMPNSANPNVLFVATDSRVPRILIPKSDVDKEFFSRPKDFERFLYTAKITDWRAESVYADGRLVKLLGMSGEIDTETERIVYEHQIDHREFSDECLESLPITTAENWKVPDAEFEYRRDFRSDIVFTIDPKTARDLDDALHAKHIDDCDGKGTPGLEIGVHIADVTFFLKEGTELDKWASERGNSTYLSQTVIPMLPRILCEQLCSLNPGVDRLSFSTVFKMSYEAELYDVWFGRSVIRSRVKLAYEHAQDFIENPEKDFTCDELPDISDGNTPFEIKEKTLMLHRIAQVLRQKREDSGALRIELPRLKFALDEDKKPQGVSIYEIKDSNKLVEEFMLLANMEVAKKIAENFPEHALLRNHPPPKEKMIKDVAEQCARIGFPLDGRTSGLLSTSLRKYQGKSRLDMCIRQVISSLTIKPMQQAKYFCTFEMPLSFYHHFALNVDHYTHFTSPIRRYPDVIVHRQLAAALGYNERSERVPEEIQEICTRCNDTKLASKEASDESAMLYFGVFIHQTGPMKCQAVVLGVMDLSFDVLIVEYGVVKRVYVDKMKRDFNKSTEKLTIYWPADPNAESGNREEFSSSIQMCNVVYVILVPYKSIEVSATIVRPSLEQRNILKSTLKDMKETGSTILQ	not soluble
